US20230242624A1 (NEURIMMUNE, published 2023)

How the values were obtained:
[1] = target: T1, SARS-CoV-2-S1 (RBD)-His protein (Trenzyme) (SARS-CoV-2, UniProt P0DTC2 319-541); test: competition ELISA, RBD binding to coated ACE2
[2] = target: T2, BSA (Sigma-Aldrich) (bovine, UniProt P02769 25-607); test: direct ELISA on coated BSA
T2 construct: also called bovine serum albumin; BSA control

[3] = target: recombinant SARS-CoV Spike protein (RBD, His tag) (SARS-CoV, UniProt P59594 306-527); test: iQue flow cytometry, antigen-coated beads
[4] = target: T1, SARS-CoV-2-S1 (RBD)-His protein …; test: iQue flow cytometry, antigen-coated beads
[5] = target: T3, MERS-CoV Spike protein fragment (RBD, aa 367-606, His tag) (MERS-CoV, UniProt K9N5Q8 367-606); test: iQue flow cytometry, antigen-coated beads
T3 sequence: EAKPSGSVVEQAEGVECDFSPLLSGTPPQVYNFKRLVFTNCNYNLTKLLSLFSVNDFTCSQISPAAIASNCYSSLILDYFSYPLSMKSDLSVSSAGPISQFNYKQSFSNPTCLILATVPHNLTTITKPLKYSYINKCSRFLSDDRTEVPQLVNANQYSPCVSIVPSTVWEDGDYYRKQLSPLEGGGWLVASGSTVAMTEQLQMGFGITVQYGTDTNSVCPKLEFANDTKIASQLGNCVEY

[6] = target: T1, SARS-CoV-2-S1 (RBD)-His protein …; test: direct ELISA on coated RBD-His
[7] = target: SARS-CoV-2 Spike (S) protein on vesicular stomatitis virus (VSV) pseudoviruses (SARS-CoV-2, UniProt P0DTC2 14-1273); test: cell-based or functional assay

T2 sequence (P02769 25-607 limits assumed): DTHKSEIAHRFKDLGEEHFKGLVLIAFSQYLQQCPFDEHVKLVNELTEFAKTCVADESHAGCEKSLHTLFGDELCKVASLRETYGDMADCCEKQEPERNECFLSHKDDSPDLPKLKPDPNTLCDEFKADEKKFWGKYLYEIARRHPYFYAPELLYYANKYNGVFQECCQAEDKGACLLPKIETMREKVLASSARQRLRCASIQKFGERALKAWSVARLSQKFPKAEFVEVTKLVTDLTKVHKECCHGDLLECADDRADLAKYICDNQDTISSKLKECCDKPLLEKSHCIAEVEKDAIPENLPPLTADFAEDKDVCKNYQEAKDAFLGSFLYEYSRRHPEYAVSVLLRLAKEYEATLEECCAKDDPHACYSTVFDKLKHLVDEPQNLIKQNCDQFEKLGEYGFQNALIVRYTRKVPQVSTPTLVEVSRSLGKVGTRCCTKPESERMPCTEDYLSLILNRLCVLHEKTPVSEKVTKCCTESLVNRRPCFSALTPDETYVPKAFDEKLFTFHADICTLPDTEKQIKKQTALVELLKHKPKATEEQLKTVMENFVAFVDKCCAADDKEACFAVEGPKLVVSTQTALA

B1: NI-607.761_B7 (antibody, V domains shown)
VH: EVQLVESGGGVVQPGRSLRLSCAASGFTFTRYGMHWVRQAPGKGLEWVAVIWYDGNNKNYEDSVRGRFTISRDNSKNTLFLQMNSLRAEDTAVYYCARGRRGGYSYGLFDYWGQGILVTVSS
VL: AIRMTQSPSSLSASVGDRVTITCQASQDISNYLNWYQQKPGKAPKLLIYDASNLETGVPSRFSGSGSGTDFTFTISSLQPEDVATYSCQQYDNLPLTFGGGTKVEIK
In the case of B1, the IC50 [1] is reported as 56 nM, the binding result [2] is reported as “no binding (tested: 400 nM)” and the EC50 [3] is reported as 200 nM. The EC50 [4] was 0.44 nM, the EC50 [5] was 200 nM and the EC50 [6] was 0.001 nM.

B2: NI-607.529_G4 (antibody, V domains shown)
VH: QVQLQQWGAGLLKPSETLSLTCAVYGGSFSGYYWSWIRQPPGKGLEWIGEINHSGSTNYNPSLKSRVTISVDTSKNQFSLKLSSVTAADTAVYYCARASLYYSDSSGYSHPYYFDYWGQGTLVTVSS
VL: QPVLTQPPSVSGAPGQRVTISCTGSSSNIGAGYDVHWYQQLPGTAPKLLIYGNSNRPSGVPDRFSGSKSGMSASLAITGLQAEDEADYYCQSYDSSLSGWVFGGGTKLTVL
B2 was tested, and the binding result [2] was “no binding (tested: 400 nM)”, the EC50 [3] was 10 nM and the EC50 [4] was 1.3 nM. The EC50 [5] was 1000 nM, the EC50 [6] was 0.026 nM and the “IC50, pseudovirus entry assay (luciferase, HEK 293T-ACE2 cells)” value (“IC50, pseudovirus entry assay” below) [7] was over 100 µg/mL.

B3: NI-607.531_E7 (antibody, V domains shown)
VH: EVQLVESGGGVVQPGRSLRLSCAASGFTFNFYSMHWVRQVPGKGLEWVAVISFDGSTKHYAESLRGRFAVSRDNSKSTLYLQMNSLRPEDTAVYYCASPPLSPIPAAGTPLDYWGQGTLVTVSS
VL: EIVMTQSPDSLAVSLGERATINCKSSQSIFYRSDDKDFLAWYQQKPGQPPKLLISWASTRESGVPDRFSGSGSGTDFTLTISSLQAEDVAVYYCQQFYYTPFTFGPGTKLEIK
notes: also called F31 E7
B3 gave an IC50 [1] of 3.67 nM, an EC50 [3] of 600 nM and an EC50 [4] of 1.3 nM. The EC50 [5] was 800 nM, the EC50 [6] was 0.027 nM and the “IC50, pseudovirus entry assay” value [7] was 3.9 µg/mL.

B4: NI-607.426_F11 (antibody, V domains shown)
VH: QVQLVESGGGLVQPGGSLRLSCAASGFTFSSYWMSWVRQAPGKGLEWVANIKQDGSEKYYVDSVKGRFTISRDNAKNSLYLQMNSLRAEDTAVYYCARGLVGQWLGVDYWGQGTLVTVSS
VL: QSVLTQPHSVSESPGKTVTISCTGSSGSIASNYVQWYQQRPGSAPTTVIYEDNQRPSGVPDRFSGSIDSSSNSASLTISGLKTEDEADYYCQSYDSSNWVFGGGTKLTVL
With B4 the IC50 [1] was 1.14 nM, the binding result [2] was “no binding (tested: 400 nM)” and the EC50 [4] was 0.89 nM. The EC50 [5] was 1000 nM, the EC50 [6] was 0.017 nM and the “IC50, pseudovirus entry assay” value [7] was over 100 µg/mL.

B5: NI-607.426_D4 (antibody, V domains shown)
VH: not shown
VL: EIVLTQSPATLSLSPGERATLSCRASQSVSSYLAWYQQKPGQAPRLLIYDASNRATGIPARFSGSGSGTDFTLTISSLEPEDFAVYYCQQRSNWPPVTFGQGTRLEIK
With B5 the IC50 [1] was 24.4 nM, the binding result [2] was “no binding (tested: 400 nM)” and the EC50 [3] was 1000 nM. For the same binder, the EC50 [4] was 0.76 nM, the EC50 [5] was 1000 nM and the EC50 [6] was 0.033 nM.

B6: NI-607.532_F3 (antibody, V domains shown)
VH: EVQLVQSGAEVKKPGESLKISCKGFGYIFSNDWIGWVRQKPGKGLEWMGIIYPGDSDTRYSPSFRGQVTISADKSVSTAYLQWDSLKASDTAVYYCTRPRYTTMIVGSNPFDVWGQGTTVTVSS
VL: QSVLTQPPSVSGAPGQRVTISCTGSSSNIGGGYDVHWYQKLPGTAPKLLIFDNDNRPSGVPDRFSGSKSDTSASLTITGLQAEDEADYFCQSYDSSLSGSGVVFGGGTKLTVL
B6 gave an IC50 [1] of 0.353 nM, an EC50 [3] of 1.3 nM and an EC50 [4] of 1.2 nM. For the same binder, the EC50 [5] was 1000 nM, the EC50 [6] was 0.019 nM and the “IC50, pseudovirus entry assay” value [7] was 11.7 µg/mL.

B7: NI-607.274_B7 (antibody, V domains shown)
VH: QVQLVESGGGRVQPGRSLRLSCAASGFTFSTHGMHWVRQVPGKGLDWITGITYDGSDQFYADSVKGRFTISRDNSKNMLYLQMNSLRAEDTAVYFCAKDLEWLTNYLDHWGQGTLVTVSS
VL: DVVMTQSPGTLSVSPGERATLSCRASQNINYNLAWYQQKPGQAPRLLIFDASTRATGIPARFTGSGSGTEFTLTISSLQSEDFAVYYCQQSNAWLTFGGGTKVEIK
For B7, the IC50 [1] was 7.8 nM, the binding result [2] was “no binding (tested: 400 nM)” and the EC50 [4] was 0.67 nM. For the same binder, the EC50 [5] was 900 nM, the EC50 [6] was 0.021 nM and the “IC50, pseudovirus entry assay” value [7] was over 100 µg/mL.

B8: NI-607.274_E5 (antibody, V domains shown)
VH: EVQLVESGGGMVQPGRSLRLSCAGSGFTFSTHGMHWVRQAPGKGLEWITGITYDGSDEFYADSVKGRFTIARDNSKNMLYLQMNSLRAEDTAVYFCAKDLEWLTNYVDHWGQGTLVTVSS
VL: DIVMTQSPGTLSVSPGERATLSCRASQSVNYNLAWYQQKPGQAPRLLIFDASTRATGIPARFTGSGSGTEFTLTISSLQSEDFAVYYCQQSNAWLTFGGGTKLEIK
In the case of B8, the IC50 [1] is reported as 12.6 nM, the binding result [2] is reported as “no binding (tested: 400 nM)” and the EC50 [3] is reported as 900 nM. For the same binder, the EC50 [4] was 0.39 nM, the EC50 [5] was 900 nM and the EC50 [6] was 0.015 nM.

B9: NI-607.649_G7 (antibody, V domains shown)
VH: QVQLVESGGGLVQPGGSLRLSCAASGFTFSRYAMSWVRQAPGKGLEWVSAISGSGGSTYYADSVKGRFTISRDNSKNTLYLQINSLRAEDTAVYYCAKGVRWGVDYFDYWGQGTLVTVSS
VL: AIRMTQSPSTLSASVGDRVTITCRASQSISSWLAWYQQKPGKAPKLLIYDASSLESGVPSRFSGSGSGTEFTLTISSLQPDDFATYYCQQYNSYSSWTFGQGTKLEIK
Work on B9 yielded an EC50 [3] of 22.2 nM, an EC50 [4] of 5.7 nM and an EC50 [5] of 800 nM. The EC50 [6] was 0.024 nM and the “IC50, pseudovirus entry assay” value [7] was over 100 µg/mL.

B10: NI-607.531_D8 (antibody, V domains shown)
VH: EVQLVESGGGLVQPGRSLRLSCAASGFIFDDYAMHWVRQAPGKGLEWVSGISWNSDSIGYADSVKGRFTISRDNAKNSLYLQMNSLRAEDTALYYCAKGSRSDWSNPSDYWGQGTLVTVSS
VL: SYELTQPPSVSVAPGKTARITCGGNNIGSKSVHWYQQKPGQAPVLVVYDDSDRPSGIPERFSGSNSGNTATLTISRVEAGDEADYYCQVWDSSSDPVVFGGGTKLTVL
For B10, the binding result [2] was “no binding (tested: 400 nM)”, the EC50 [4] was 1.4 nM and the EC50 [5] was 1000 nM. The EC50 [6] was 0.0045 nM and the “IC50, pseudovirus entry assay” value [7] was over 100 µg/mL.

B11: NI-607.532_B6 (antibody, V domains shown)
VH: QVQLVQSGAEVKKPGASVKVSCKASGYTFTSYDINWVRQATGQGLEWMGWMNPNSGNTGYAQKFQGRVTMTRNTSISTAYMELSSLRSEDTAVYYCARVVSLTGFFDYWGQGTLVTVSS
VL: SYELTQPPSVSVAPGKTARITCGGNNIGSKNVHWYQQKPGQAPVLVVYDDSDRPSGIPERFSGSNSGNTATLTISRVEAGDEADYYCQVWDSSSDPWVFGGGTKLTVL
For B11, the binding result [2] was “no binding (tested: 400 nM)”, the EC50 [3] was 4.2 nM and the EC50 [4] was 1.1 nM. For the same binder, the EC50 [5] was 1000 nM, the EC50 [6] was 0.0045 nM and the “IC50, pseudovirus entry assay” value [7] was 100 µg/mL.

B12: NI-607.429_B9 (antibody, V domains shown)
VH: EVQLVESGGGLVQPGGSLRLSCAASGFTFSSYWMSWVRQAPGKGLEWVANIKQDGSEKYYVDSVKGRFTISRDNAKNSLYLQMNSLRAEDTAVYYCASLFWRRGSFDPWGQGTLVTVSS
VL: QSVLTQPHSVSESPGKTVTISCTRSTGSIASNYVQWYQQRPGSAPTTVIYEDNQRPSGVPDRFSGSIDSSSNSASLTISGLKTEDEADYYCQSYDTSSYWVFGGGTKLTVL
For B12, the IC50 [1] was 0.074 nM, the binding result [2] was “no binding (tested: 400 nM)” and the EC50 [4] was 1.87 nM. The EC50 [5] was 600 nM, the EC50 [6] was 0.014 nM and the “IC50, pseudovirus entry assay” value [7] was 7.1 µg/mL.
